Measurements from patent US20150093383A1 (ONO PHARMACEUTICAL, published 2015).
Square brackets hold non-standard residues; d marks the D form. Ends that are not written are not given here. * marks the point of attachment. Biotin = O=C1N[C@H]2[C@H](CS[C@H]2CCCCC(=O)*)N1; pY = N[C@@H](Cc1ccc(OP(=O)(O)O)cc1)C(=O)O

What was measured:
SHP-2 [1] = target: T1, SHP-2 (mouse (endogenous in mouse B cell …, UniProt P35235 2-593)); test: co-immunoprecipitation with 2.4G2 from stimulated A20IIA1.6 cells, Western blotting
T1 construct: Detected by Western blotting with a Santacruz primary antibody; also called phosphatase
T1 sequence (looked up): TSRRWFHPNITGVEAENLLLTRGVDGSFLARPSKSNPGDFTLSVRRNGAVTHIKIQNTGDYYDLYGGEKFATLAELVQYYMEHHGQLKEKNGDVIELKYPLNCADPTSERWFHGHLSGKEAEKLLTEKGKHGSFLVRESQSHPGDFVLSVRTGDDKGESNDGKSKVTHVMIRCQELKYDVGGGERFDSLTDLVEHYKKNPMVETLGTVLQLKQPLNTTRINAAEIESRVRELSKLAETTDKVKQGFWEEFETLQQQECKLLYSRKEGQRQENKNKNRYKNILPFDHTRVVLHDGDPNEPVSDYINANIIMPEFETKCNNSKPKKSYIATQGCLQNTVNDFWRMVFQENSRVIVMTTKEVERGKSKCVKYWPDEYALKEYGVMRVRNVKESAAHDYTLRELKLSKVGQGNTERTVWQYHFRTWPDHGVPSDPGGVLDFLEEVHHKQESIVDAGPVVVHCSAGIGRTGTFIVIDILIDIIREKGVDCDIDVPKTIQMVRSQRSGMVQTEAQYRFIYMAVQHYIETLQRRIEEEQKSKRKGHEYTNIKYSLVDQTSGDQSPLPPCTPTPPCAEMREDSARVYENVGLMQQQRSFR
Method: (§1) Examination was carried out on whether or not intracellular tyrosine residue is phosphorylated and a phosphatase is recruited when BIR1 is activated. With 30 μg/mL of F(ab′)₂ of rabbit anti-mouse IgG (H+L) antibody or 45 μg/mL of intact antibody thereof (manufactured by Zymed), 3×10⁷ cells of the FcR chimeric protein-stably expressing cell suspended in Ca²⁺-containing HEPES/Hanks' buffer were stimulated at 37° C. for 3 minutes. Thereafter, the cells were lysed with a lysis buffer (1% NP-40, 50 mmol/L Tris-HCl, pH 8.0, 150 mmol/L NaCl, 50 mmol/L NaF, 10% glycerol, 1 mmol/L Na₃VO₄, […], proteinnase inhibitor cocktail tablet (manufactured by Roche Diagnostics)). The cell lysate was allowed to react with Protein A/G PLUS-Agarose (manufactured by Santacruz) to which a rat anti-mouse CD16/CD32 antibody (2.4G2) (manufactured by BD Pharmingen) is bound, at 4° C. for 5 hours or more. The FcR chimeric protein and binding molecules thereof are immuno-precipitated and then Western blotting was carried out in the usual way. The membrane was allowed to react with phosphotyrosine (4G10) (manufactured by Upstate) and primary antibodies for SHP-1, SHP-2 and SHIP-1 (manufactured by Santacruz), followed by the reaction with a horse radish peroxidase (HRP)-labeled secondary antibody (manufactured by Santacruz) to detect the bands by an ECL detection system (manufactured by Amersham Biosciences).

SHP-1 [2] = target: T2, SHP-1 (mouse (endogenous in mouse B cell …, UniProt P29351 1-595)); test: as above
T2 construct: Detected by Western blotting with a Santacruz primary antibody; also called phosphatase
T2 sequence (P29351 whole entry): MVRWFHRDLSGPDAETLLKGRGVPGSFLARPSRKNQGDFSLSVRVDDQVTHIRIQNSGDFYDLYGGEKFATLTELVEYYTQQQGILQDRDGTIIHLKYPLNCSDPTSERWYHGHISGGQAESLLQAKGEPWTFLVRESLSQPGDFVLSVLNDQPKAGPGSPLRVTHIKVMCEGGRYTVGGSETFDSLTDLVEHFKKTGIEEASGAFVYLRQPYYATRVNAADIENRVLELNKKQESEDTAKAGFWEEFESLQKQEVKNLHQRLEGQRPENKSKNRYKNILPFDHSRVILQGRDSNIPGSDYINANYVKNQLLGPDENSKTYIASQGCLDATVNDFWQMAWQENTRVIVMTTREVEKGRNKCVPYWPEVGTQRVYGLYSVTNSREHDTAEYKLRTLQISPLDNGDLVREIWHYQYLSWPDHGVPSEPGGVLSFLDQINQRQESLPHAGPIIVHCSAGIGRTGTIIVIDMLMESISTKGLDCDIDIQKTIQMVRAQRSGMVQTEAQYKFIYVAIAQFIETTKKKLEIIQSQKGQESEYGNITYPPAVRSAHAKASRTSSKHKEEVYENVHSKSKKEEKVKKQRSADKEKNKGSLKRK
Method: as §1

SHIP-1 [3] = target: T3, SHIP-1 (mouse (endogenous in mouse B cell …, UniProt Q9ES52 1-1191, limits assumed)); test: as above
T3 construct: Detected by Western blotting with a Santacruz primary antibody; also called phosphatase
T3 sequence (looked up): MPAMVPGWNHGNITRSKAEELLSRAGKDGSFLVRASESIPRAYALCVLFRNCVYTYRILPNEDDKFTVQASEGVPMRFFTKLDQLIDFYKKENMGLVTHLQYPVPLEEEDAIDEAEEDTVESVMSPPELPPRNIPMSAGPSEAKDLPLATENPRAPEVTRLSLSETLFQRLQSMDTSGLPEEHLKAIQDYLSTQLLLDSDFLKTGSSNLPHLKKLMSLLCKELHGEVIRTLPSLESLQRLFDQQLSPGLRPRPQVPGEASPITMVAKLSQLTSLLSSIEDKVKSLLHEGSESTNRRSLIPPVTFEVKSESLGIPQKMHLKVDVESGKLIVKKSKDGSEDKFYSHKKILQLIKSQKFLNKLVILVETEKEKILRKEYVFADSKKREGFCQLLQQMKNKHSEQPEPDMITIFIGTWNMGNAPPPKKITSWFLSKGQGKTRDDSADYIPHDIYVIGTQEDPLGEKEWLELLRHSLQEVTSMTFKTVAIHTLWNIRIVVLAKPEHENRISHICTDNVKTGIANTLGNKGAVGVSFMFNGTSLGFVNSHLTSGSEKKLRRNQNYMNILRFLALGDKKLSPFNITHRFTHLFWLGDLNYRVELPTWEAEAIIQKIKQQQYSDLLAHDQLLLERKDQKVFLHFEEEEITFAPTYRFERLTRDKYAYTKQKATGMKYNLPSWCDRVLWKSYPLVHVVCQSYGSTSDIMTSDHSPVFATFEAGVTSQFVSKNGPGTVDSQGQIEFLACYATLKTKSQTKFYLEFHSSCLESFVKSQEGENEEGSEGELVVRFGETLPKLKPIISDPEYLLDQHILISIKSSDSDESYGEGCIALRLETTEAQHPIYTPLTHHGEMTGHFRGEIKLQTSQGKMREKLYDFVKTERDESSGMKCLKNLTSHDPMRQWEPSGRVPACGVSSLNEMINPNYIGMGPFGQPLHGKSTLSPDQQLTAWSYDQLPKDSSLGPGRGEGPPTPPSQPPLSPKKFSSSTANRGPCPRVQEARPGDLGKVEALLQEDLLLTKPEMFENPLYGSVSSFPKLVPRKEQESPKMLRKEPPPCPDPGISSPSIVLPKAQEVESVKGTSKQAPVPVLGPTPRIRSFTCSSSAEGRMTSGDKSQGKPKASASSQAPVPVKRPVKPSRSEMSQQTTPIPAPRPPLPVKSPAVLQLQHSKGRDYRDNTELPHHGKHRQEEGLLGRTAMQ
Method: as §1

SHP-2 [4] = target: T1, SHP-2; test: pull-down of A20IIA1.6 lysate with biotinylated phosphopeptide, Western blotting
Text: (§2) The ITIM domain which is a sequence important for BIR1 in transmitting inhibitory signal and the binding phosphatase were identified. Peptides (Y3: Biotin-HSQELQ³¹³YATPVF (SEQ ID NO:23), Y5: Biotin-DSYKSG³³⁶YVYSEL (SEQ ID NO:24), Y6: Biotin-YKSGYV³³⁸YSELNF (SEQ ID NO:25)) containing intracellular tyrosine of BIR1 (SEQ ID NO:1) and their corresponding phosphorylated peptides (pY3: Biotin-HSQELQ³¹³(pY)ATPVF (SEQ ID NO:26), pY5: Biotin-DSYKSG³³⁶(pY)VYSEL (SEQ ID NO:27), pY6: Biotin-YKSGYV³³⁸(pY)SELNF (SEQ ID NO:28)) were synthesized (consigned to Sigma Genosys). A peptide containing the ITIM sequence of mouse PIR-B and its phosphorylated peptide (Y3: Biotin-ESQDVT⁷⁹⁴YAQLCS (SEQ ID NO:29) and pY3: Biotin-ESQDVT⁷⁹⁴(pY)AQLCS (SEQ ID NO:30)) were synthesized as positive controls. These peptides were connected to Protein A/G PLUS-Agarose (manufactured by Santacruz) via an anti-biotin antibody (manufactured by Sigma) and then allowed to react with a lysate of A20IIA1.6 cell at 4° C. for 2 hours. After immunoprecipitation, western blotting was carried out in the usual way. The membrane was allowed to react with primary antibodies for SHP-1, SHP-2 and SHIP-1 (manufactured by Santacruz), and then allowed to react with an (HRP)-labeled secondary antibody (manufactured by Santacruz), and the bands were detected using an ECL plus Western Blotting Detection System (manufactured by Amersham Biosciences).

SHP-1 [5] = target: T2, SHP-1; test: as above
Text: as §2

SHIP-1 [6] = target: T3, SHIP-1; test: as above
Text: as §2

Measured: binding result

B1: FcR-hBIR1 (YWF) (receptor)
chain: THDLPKAVVKLEPPWIQVLKEDTVTLTCEGTHNPGNSSTQWFHNGRSIRSQVQASYTFKATVNDSGEYRCQMEQTRLSDPVDLGVISDWLLLQTPQLVFLEGETITLRCHSWRNKLLNRISFFHNEKSVRYHHYSSNFSIPKANHSHSGDYYCKGSLGRTLHQSKPVTITVQGPKSSRSLPVLTIVAAVTGIAVAAIVIILVSLVYLKKKQVPKFKTRKAMRNNVPRDRGDTAMEVGIFANILEKQAKEESVPEVGSRPCVSTAQDEAKHSQELQFATPVFQEVAPREQEACDSFKSGFVFSELNF
notes: Stably expressed in the mouse B cell strain A20IIA1.6; Immunoprecipitated from the cell lysate with 2.4G2; also called mutant in which intracellular tyrosine residue of BIR1 was replaced by phenylalanine residue
no binding: SHP-2 [1] | SHP-1 [2] | SHIP-1 [3]

Biotin-DSYKSG[pY]VYSEL (Synthesised by Sigma Genosys) [pY5: Biotin-DSYKSG^336(pY)VYSEL]
no binding: SHP-2 [4] | SHP-1 [5] | SHIP-1 [6]
